One data set deals with T1, CyaB (Aeromonas hydrophila, UniProt O69199).
T1 construct: full length from first Met, cloned in PVP16 as 8HIS-MBP fusion, tag removed by TEV digestion; produced in E. coli BL21DE3; nickel column
T1 sequence (O69199 1-191): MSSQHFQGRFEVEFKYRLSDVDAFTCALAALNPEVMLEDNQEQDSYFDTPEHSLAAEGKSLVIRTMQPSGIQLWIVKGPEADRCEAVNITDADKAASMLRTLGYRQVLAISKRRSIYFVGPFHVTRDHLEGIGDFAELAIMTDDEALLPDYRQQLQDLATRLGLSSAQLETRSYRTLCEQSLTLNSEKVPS
The experiment in a line: inorganic phosphate release, colorimetric. Type of data set: biochemical. To be noted: 0.5 mM substrate, 5 mM Mg2+ or Mn2+, pH 9.1, 50°C.

Substrate in data set [1]: O=P(O)(O)OP(=O)(O)OP(=O)(O)O
The experiment in a line: inorganic phosphate release, colorimetric, Michaelis-Menten fit. Type of data set: biochemical, Escherichia coli. Conditions: 5 mM Mg2+, pH 8.5, 50°C.

Substrate in data set [2]: O=P(O)(O)OP(=O)(O)OP(=O)(O)O
The experiment in a line: inorganic phosphate release, colorimetric. Type of data set: biochemical, Escherichia coli. Conditions: 10 mM Mg2+, 50 mM CHES pH 9.1, 25°C.

For the molecule `O=P(O)(O)OP(=O)(O)OP(=O)(O)O` [PPPi], the “inorganic phosphate release, colorimetric” value on CyaB is “it indeed hydrolyzes substrates such as ATP, ThTP and PPPi but at a low rate”.

Consider `Cc1ncc(C[n+]2csc(CCOP(=O)(O)OP(=O)(O)OP(=O)(O)O)c2C)c(N)n1` [ThTP], for which the “inorganic phosphate release, colorimetric” value on CyaB is “it indeed hydrolyzes substrates such as ATP, ThTP and PPPi but at a low rate”.

B1: GST-ygiF (Escherichia coli K-12) (protein)
chain: MAQEIELKFIVNHSAVEALRDHLNTLGGEHHDPVQLLNIYYETPDNWLRGHDMGLRIRGENGRYEMTMKVAGRVTGGLHQRPEYNVALSEPTLDLAQLPTEVWPNGELPADLASRVQPLFSTDFYREKWLVAVDGSQIEIALDQGEVKAGEFAEPICELELELLSGDTRAVLKLANQLVSQTGLRQGSLSKAARGYHLAQGNPAREIKPTTILHVAAKADVEQGLEAALELALAQWQYHEELWVRGNDAAKEQVLAAISLVRHTLMLFGGIVPRKASTHLRDLLTQCEATIASAVSAVTAVYSTETAMAKLALTEWLVSKAWQPFLDAKAQGKISDSFKRFADIHLSRHAAELKSVFCQPLGDRYRDQLPRLTRDIDSILLLAGYYDPVVAQAWLENWQGLHHAIATGQRIEIEHFRNEANNQEPFWLHSGKR
notes: produced in E. coli DH5alpha, GSTrap purified
With B1, the Km in data set [1] is 270 ± 25 µM.

B2: EcPPase (Escherichia coli K-12) (protein)
chain: SLLNVPAGKDLPEDIYVVIEIPANADPIKYEIDKESGALFVDRFMSTAMFYPCNYGYINHTLSLDGDPVDVLVPTPYPLQPGSVIRCRPVGVLKMTDEAGEDAKLVAVPHSKLSKEYDHIKDVNDLPELLKAQIAHFFEHYKDLEKGKWVKVEGWENAEAAKAEIVASFERAKNK
notes: commercial purified recombinant preparation (Sigma-Aldrich); 20 kDa per subunit
Take B2: in data set [2], the Km came to 910 ± 90 µM and the kcat was determined as 16.7 s⁻¹.

By Km is commonly meant the substrate concentration at which the rate is half of its maximum. Broadly, the kcat is the maximal rate divided by the concentration of active sites.

The values are drawn from publication PMC3440374, “High Inorganic Triphosphatase Activities in Bacteria and Mammalian Cells: Identification of the Enzymes Involved” (PLoS ONE, 2012).
